# Assay results taken from article PMC5935684.
# Molecular target: nucleosome core particle assembled on a 149 bp long 601 DNA sequence (Xenopus laevis)
# Assay: cryo-EM micrographs and 2D classification; NCPs on 149 bp 601 DNA at 150 mM NaCl; particles with a second NCP in the proximity counted by 2D classification (Relion)
substance,measurement,value
nucleosome core particle assembled on a 149 bp long 601 DNA sequence (complex),percent of particles with a second NCP in the proximity,20%
